The supplement of paper PMC11780869

Test system: Bacillus subtilis
Test: cleaved RNA product abundance (RNA/gDNA barcode ratio) relative to median wild-type variant (ratio to wild type); higher = more accumulation of the downstream cleavage product
Summary of the method: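 Cleaved product abundance is expressed as the RNA:gDNA barcode ratio per construct, scaled to the median construct carrying the unmutated site. The constructs were barcoded, mutagenized RNase Y cleavage-site windows in truncated aprE or tetM reporter mRNAs integrated into the B. subtilis chromosome. Cultures grew in LB at 37°C from OD600 0.0003 to 0.3 before cleaved RNA was gel-selected and barcode-sequenced.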

[1] = experiment (reporter, strain, medium): exp 4a: truncated aprE reporter, strain BJT201 with 2% xylose (RNase J1 expressed), cleavage site: cggR-gapA (positions -7 to +36 mutated)
[2] = experiment (reporter, strain, medium): exp 8a: truncated aprE reporter, strain BJT201 with 2% xylose (RNase J1 expressed), cleavage site: glnRA (positions -5 to +31 mutated)
[3] = experiment (reporter, strain, medium): exp 2b: truncated aprE reporter, strain BJT200, cleavage site: cggR-gapA (positions -7 to +36 mutated)

Sequence | cleaved RNA product abundance [1] | cleaved RNA product abundance [2] | other results
ACAGACGAAGGAGCCGCAAAGAAGTTATTAACGGAGGAATAATCCCTCAATATAAATATCTCTCACTTATTTAAA | 0.171 |  | 
ACAGACGAAGGAGCCGCAAAGAAGTTATTATGGGATGATTAATCCCTCAATATAAATATCTCTCACTTATTTAAA | 0.414 |  | 
CGACATGTCCCGCTTCTTTCATTAATCCGTTAGCAAGTGTTTTGCTATATACATTTAGCTTTTAAGAGGAGGAAT |  | 1.43 | 
ACAGACGAAGGAGCCGCAAAGAAGTTATTAAGGAATAAATAATCCCTCAATATAAATATCTCTCACTTATTTAAA | 0.0868 |  | cleaved RNA product abundance [3]: 0.0901
CGACATGTCCCGCTTCTTTCATTAATCCGTTAGCAACTGTTTTGCTATATACATTTTCTTTTTAAGAGGAGGAAT |  | 0.842 | 
ACAGACGAAGGAGCCGCAAATAAGTTATTAAGGTATGAATAAACCCTCAATATAAATATCTCTCACTTATTTAAA |  |  | cleaved RNA product abundance [3]: 0.118
CGACATGTCCCGCTTCTTTCATTAATCCGTTAGCAACTGTTAAGCTATATACATTTACCTTTTAAGAGGAGGAAT |  | 0.279 | 
CGACATGTCCCGCTTCTTTCATTAATCCGTTAGCAACTGTTTTGCAATATACATTTCCCTTTTAAGAGGAGGAAT |  | 0.589 | 
CGACATGTCCCGCTTCTTTCATTAATCCGTTAGCAACTATTTTGCTATATACATTTACTTTTTAAGAGGAGGAAT |  | 1.55 | 
ACAGACGAAGGAGCCGCAAAGAAGTTATTAAGGGATTAAAAATCCCTCAATATAAATATCTCTCACTTATTTAAA | 0.629 |  | cleaved RNA product abundance [3]: 0.941
CGACATGTCCCGCTTCTTTCATTACTCCGTTAGCAAATGTTTTGCTATATACATTTACCTTTTAAGAGGAGGAAT |  | 1.14 | 
ACAGACGAAGGAGCCGCAAAGAAGTTATTAAGGGATGAATAAGCCCTCAATATAAATAGCTCTCACTTATTTAAA | 0.406 |  | 
CGACATGTCCCGCTTCTTTCATTAATCCGTTAGCAACTGTATTGCTATATACATTTACCTTTTAAGAGGAGGAAT |  | 0.943 | 
ACAGACGAAGGAGCCGCAAAGAATTTATTAAGGTATGAATAATCCCTCAATATAAATATCTCTCACTTATTTAAA | 0.178 |  | cleaved RNA product abundance [3]: 0.102
CGACATGTCCCGCTTCTTTCATTAATCCGTTGGCAACTGTTTTGCTATAAACATTTACCTTTTAAGAGGAGGAAT |  | 0.509 | 
ACAGACGAAGGAGCCGCAAAGAAGTTATTAAGGGATAAATAATCCATCAATATAAATATCTCTCACTTATTTAAA | 0.195 |  | 
ACAGACGAAGGAGCCGCAAAGAAGTTATTAAGGGATGAATAAACCCTCAATATATATATCTCTCACTTATTTAAA | 0.477 |  | cleaved RNA product abundance [3]: 0.488
ACAGACGAAGGAGCCGCAAAGAAGTTATTAAGGGATGAATAAACTCTCAATATAAATATCTCTCACTTATTTAAA | 0.14 |  | 
ACAGACGAAGGAGCCGCTAAGAAGTTATTAAGGGATGAATAATCCATCAATATAAATATCTCTCACTTATTTAAA | 0.186 |  | 
CGACATGTCCCGCTTCTTTCATTATTCCGTTAGCAACTGTTTTGCTATATACATTAACATTTTAAGAGGAGGAAT |  | 2.49 | 
CGACATGTCCCGCTTCTTTCATTATTCCGTTAGCAACTCTTTTGCTAAATACATTTACCTTTTAAGAGGAGGAAT |  | 0.422 | 

Sequence | cleaved RNA product abundance [1] | cleaved RNA product abundance [2] | other results
ACAGACGAAGGAGCCGCAAAGAAGTTATTAAGGCATGAATAATCCCTCAATATATATATCTCTCACTTATTTAAA | 0.11 |  | cleaved RNA product abundance [3]: 0.106
ACAGACGAAGGAGCCGCAAAGAAGTTATAAAGGGATGAATAAACCCTCAATATAAATATCTCTCACTTATTTAAA | 0.197 |  | cleaved RNA product abundance [3]: 0.145
ACAGACGAAGGAGCCGCAAAGAAGTTATTAAGGGATGAATAAACCCTCAAAATAAATATCTCTCACTTATTTAAA | 0.198 |  | cleaved RNA product abundance [3]: 0.196
ACAGACGAAGGAGCCGCAAAGAAGTTATTAAGGGCTGAATAATCCCCCAATATAAATATCTCTCACTTATTTAAA | 0.157 |  | 
ACAGACGAAGGAGCCGCAAAGAAGTTATTAAGGTATGAATAATCCCTCAATAGAAATATCTCTCACTTATTTAAA | 0.0725 |  | 
ACAGACGAAGGAGCCGCAAAGAAGTAATTAAGGGATGAATAATCCCTGAATATAAATATCTCTCACTTATTTAAA | 0.253 |  | 
ACAGACGAAGGAGCCGCAAACAAATTATTAAGGGATGAATAATCCCTCAATATAAATATCTCTCACTTATTTAAA | 0.696 |  | cleaved RNA product abundance [3]: 0.711
CGACATGTCCCGCTTCTTTCATTAATCCGTTAGCAACTGTTTTGCTATATACCTTAACCTTTTAAGAGGAGGAAT |  | 0.281 | 
ACAGACGAAGGAGCCGCAAAGAAGTTTTTAAGGGATGAATAATCCCTCATTATAAATATCTCTCACTTATTTAAA | 0.405 |  | 
ACAGACGAAGGAGCCGCAAAGAAGTTATTAAGGAATTATTAATCCCTCAATATAAATATCTCTCACTTATTTAAA | 0.203 |  | 
ACAGACGAAGGAGCCGCAAAGAAGTTATTAAGGGATGAATCATCCCTAAATATAAATATCTCTCACTTATTTAAA | 1 |  | cleaved RNA product abundance [3]: 0.597
ACAGACGAAGGAGCCGAAAAGAAGTTATTAAGGGATGAATAATCCCTCAATATAAATATCTCTCACTTATTTAAA |  |  | cleaved RNA product abundance (experiment (reporter, strain, medium): exp 6: tetM reporter, strain 168, cleavage site: cggR-gapA (positions -7 to +36 mutated)): 0.794
ACAGACGAAGGAGCCGCAAAGAAGTTATTAAGGGATCAATAATCCTTCAATATAAATATCTCTCACTTATTTAAA | 0.353 |  | 
CGACATGTCCCGCTTCTTTCATTAATCCGTTAGCAACTGTTTTGCTAGATACATTTACTTTTTAAGAGGAGGAAT |  | 0.636 | 
ACAGACGAAGGAGCCGCAAAGATGATATTAAGGGATGAATAATCCCTCAATATAAATATCTCTCACTTATTTAAA | 0.676 |  | cleaved RNA product abundance [3]: 0.664
CGACATGTCCCGCTTCTTTCATTAATCCGTTAGAAACTGATTTGCTATATACATTTACCTTTTAAGAGGAGGAAT |  | 0.194 | 
CGACATGTCCCGCTTCTTTCATTAATCCGTTAGCAACTGTTTAGCTTTATACATTTACCTTTTAAGAGGAGGAAT |  | 0.192 | 
CGACATGTCCCGCTTCTTTCATTAATCCGTTAGCAACTGTTTTGCTATATACACTTATCTTTTAAGAGGAGGAAT |  | 0.672 | 
ACAGACGAAGGAGCCGCAAAGAAGATATTAAGGGATGAATAAACCCTCAATATAAATATCTCTCACTTATTTAAA | 0.574 |  | 
ACAGACGAAGGAGCCGCAAAGAAGTTAATAAGGGATGAATAATCCCTCACTATAAATATCTCTCACTTATTTAAA | 0.263 |  | 
CGACATGTCCCGCTTCTTTCATTACTCCGTTAGAAACTGTTTTGCTATATACATTTACCTTTTAAGAGGAGGAAT |  | 0.478 | 

Sequence | cleaved RNA product abundance [1] | cleaved RNA product abundance [2] | other results
ACAGACGAAGGAGCCGCAAAGAAGTTATTAAGGGATGAATAATCCGTAAATATAAATATCTCTCACTTATTTAAA | 0.28 |  | 
ACAGACGAAGGAGCCGCAAAGAAGTTATTAAGTGATGAATTATCCCTCAATATAAATATCTCTCACTTATTTAAA | 0.249 |  | cleaved RNA product abundance [3]: 0.104
ACAGACGAAGGAGCCGCAAAGAAGTTATTAGGGTATGAATAATCCCTCAATATAAATATCTCTCACTTATTTAAA | 0.361 |  | 
CGACATGTCCCGCTTCTTTCATTAATCAGTTAGTAACTGTTTTGCTATATACATTTACCTTTTAAGAGGAGGAAT |  | 0.421 | 
CGACATGTCCCGCTTCTTTCATTAATCCGTTAGCAACTGTTATGCTAAATACATTTACCTTTTAAGAGGAGGAAT |  | 0.111 | 
ACAGACGAAGGAGCCGCAAAGATGTTATTAAGAGATGAATAATCCCTCAATATAAATATCTCTCACTTATTTAAA | 0.156 |  | 
ACAGACGAAGGAGCCGCAAAGTAGTTATTATGGGATGAATAATCCCTCAATATAAATATCTCTCACTTATTTAAA | 0.445 |  | 
ACAGACGAAGGAGCCGCAAAGAAGTTAATAAGGGATGAACAATCCCTCAATATAAATATCTCTCACTTATTTAAA |  |  | cleaved RNA product abundance [3]: 0.251
ACAGACGAAGGAGCCGCAAAGAAGTTATTAAGGGATGAATACTCCCTCAAGATAAATATCTCTCACTTATTTAAA |  |  | cleaved RNA product abundance [3]: 0.156
ACAGACGAAGGAGCCGCAAACAACTTATTAAGGGATGAATAATCCCTCAATATAAATATCTCTCACTTATTTAAA |  |  | cleaved RNA product abundance [3]: 0.172
CGACATGTCCCGCTTCTTTCATTAATCAGTTAGCAACTGTTTTGCTATATACATTTACCGTTTAAGAGGAGGAAT |  | 0.649 | 
CGACATGTCCCGCTTCTTTCATTACTCCGTTAGCAAGTGTTTTGCTATATACATTTACCTTTTAAGAGGAGGAAT |  | 0.557 | 
ACAGACGAAGGAGCCGCAAAGAAGTTATTAAGGGATGAACTATCCCTCAATATAAATATCTCTCACTTATTTAAA | 0.794 |  | 
ACAGACGAAGGAGCCGCAAAGAAGTTATTAAGGGACGAATAATCCCTCAATATATATATCTCTCACTTATTTAAA | 0.771 |  | cleaved RNA product abundance [3]: 0.629
ACAGACGAAGGAGCCGCAAAGAAGTTATAAAGGGATGAATAAGCCCTCAATATAAATATCTCTCACTTATTTAAA | 0.172 |  | 
CGACATGTCCCGCTTCTTTCATTAATCCGTTAGCAACTGTTTTGGTATATACATTTACATTTTAAGAGGAGGAAT |  | 0.529 | 
ACAGACGAAGGAGCCGCAAAGAAGTTATTAAGGGTTGAATAATCCCTCTATATAAATATCTCTCACTTATTTAAA | 0.151 |  | cleaved RNA product abundance [3]: 0.157
CGACATGTCCCGCTTCTTTCATTAATCCGTTATCAACTGTTTTGTTATATACATTTACCTTTTAAGAGGAGGAAT |  | 0.272 | 
CGACATGTCCCGCTTCTTTCATTAATCCTTTAGCAACGGTTTTGCTATATACATTTACCTTTTAAGAGGAGGAAT |  | 0.7 | 
